Source: patent publication US20230265198A1 (TWIST BIOSCIENCE, published 2023)

Assays:
[1] = molecular target: neuropilin-1 (NRP1), analyte in SPR (UniProt O14786 22-644, limits assumed); assay: SPR, Carterra LSA, antibody coupled
Protocol: SPR experiments were performed on a Carterra LSA SPR biosensor equipped with a HC30M chip at 25° C. in HBS-TE. Antibodies were diluted to 10 μg/mL and amine-coupled to the sensor chip by EDC/NHS activation, followed by ethanolamine HCl quenching. Increasing concentrations of analyte were flowed over the sensor chip in HBS-TE with 0.5 mg/mL BSA with 5-minute association and 15-minute dissociation. Following each injection cycle the surface was regenerated with 2× 30-second injections of IgG elution buffer (Thermo). Data were analyzed in Carterra's Kinetics Tool software with 1:1 binding model.

[2] = molecular target: T1, neuropilin-1 (NRP1) on HEK293 cells overexpressing NRP1 (UniProt O14786 22-923, limits assumed); assay: flow cytometry, HEK293-NRP1 vs HEK293
T1 construct: whole, on cells

Binder | binding result [1] | 100 nM FACS (MFI Ratio) [2] | Kd [1] [nM] | koff [1] [s⁻¹] | kon [1] [M⁻¹ s⁻¹]
NRP1-134 (antibody, IgG2, V domains shown) VH: EVQLLESGGGLVQPGGSLRLSCAASGFTFSNYGVSWVRQAPGKGLEWVSEISPSGKKKYYADSVKGRFTISRDNSKNTLYLQMNSLRAEDTAVYYCAKTTDIQRLNSAFDYWGQGTLVTVSS VL: DIQMTQSPSSLSASVGDRVTITCRASQPIAYFLSWYQQKPGKAPKLLIYDASSLHTGVPSRFSGSGSGTDFTLTISSLQPEDFATYYCSSRDKSGSRLVTFGQGTKVEIK | no binding | 1.9 |  |  | 
NRP1-33 (VHH) VHH: EVQLVESGGGLVQPGGSLRLSCAASGRTFSSGTMGWFRQASGKEREFVARINSDGSTNYADSVKGRFTISADNSKNTAYLQMNSLKPEDTAVYYCAKWSSSWYGYYYYGMDVWGQGTLVTVSS |  | 335 | 10.8 | 0.0167 | 1.55e+06
NRP1-18 (VHH) VHH: EVQLVESGGGLVQPGGSLRLSCAASGFRFSSYGMGWFRQAPGKEREFVAFISGNPSRTYYADSVKGRFTISADNSKNTAYLQMNSLKPEDTAVYYCAARPYQKYNWASASYNWGQGTLVTVSS |  | 20.8 | 290 | 0.00374 | 12900
NRP1-4 (VHH) VHH: EVQLVESGGGLVQPGGSLRLSCAASGNIFINNAMGWFRQAPGKERELVAAITSSSGRRWYADSVKGRFTISADNSKNTAYLQMNSLKPEDTAVYYCAARRIVNVEGAYRDWGQGTLVTVSS |  | 30.9 | 183 | 0.047 | 256000
NRP1-73 (VHH) VHH: EVQLVESGGGLVQPGGSLRLSCAASGFTFSGNWMGWFRQAPGKERELVAVILRGGSTNYADSVKGRFTISADNSKNTAYLQMNSLKPEDTAVYYCAVKIYSGSYSSPPGYNWGQGTLVTVSS |  | 5.9 |  |  | 
NRP1-128 (antibody, IgG2, V domains shown) VH: EVQLLESGGGLVQPGGSLRLSCAASGFTFSRYAMNWVRQAPGKGLEWVSAISGSGGNTYYADSVKGRFTISRDNSKNTLYLQMNSLRAEDTAVYYCARVRRGGATDYWGQGTLVTVSS VL: DIQMTQSPSSLSASVGDRVTITCRASQDVSSGVAWYQQKPGKAPKLLIYGKNIRPSGVPSRFSGSGSGTDFTLTISSLQPEDFATYYCQQTYSPPLTFGQGTKVEIK | no binding | 1.2 |  |  | 
NRP1-8 (VHH) VHH: EVQLVESGGGLVQPGGSLRLSCAASGFPLDDYAMGWFRQAPGKEREFVAAINWSGGSAVYADSVKGRFTISADNSKNTAYLQMNSLKPEDTAVYYCMRGGSYGDYGGYWGQGTLVTVSS |  | 3.1 | 91.1 | 0.00283 | 31100
NRP1-15 (VHH) VHH: EVQLVESGGGLVQPGGSLRLSCAASGFTFSNYDMGWFRQAPGKEREFVAAISWSGTLTSYADSVKGRFTISADNSKNTAYLQMNSLKPEDTAVYYCARQRETGHLILYSDYYYGMDVWGQGTLVTVSS | no binding | 6.5 |  |  | 
NRP1-115 (antibody, IgG2, V domains shown) VH: EVQLLESGGGLVQPGGSLRLSCAASGFTFGHYEMDWVRQAPGKGLEWVSSIDDRGRYTYYADSVKGRFTISRDNSKNTLYLQMNSLRAEDTAVYYCARSKIAFDYWGQGTLVTVSS VL: DIQMTQSPSSLSASVGDRVTITCRASQNIRSYLNWYQQKPGKAPKLLIYGRNKRPSGVPSRFSGSGSGTDFTLTISSLQPEDFATYYCQQSYENPLTFGQGTKVEIK |  | 0.8 | 87.4 | 0.00951 | 109000
NRP1-132 (antibody, IgG2, V domains shown) VH: EVQLLESGGGLVQPGGSLRLSCAASGFTFGDHGMGWVRQAPGKGLEWVSYITPKGDHTYYADSVKGRFTISRDNSKNTLYLQMNSLRAEDTAVYYCASLPKRGPRFDYWGQGTLVTVSS VL: DIQMTQSPSSLSASVGDRVTITCRASQNIRSYLNWYQQKPGKAPKLLIYRLSVLQSGVPSRFSGSGSGTDFTLTISSLQPEDFATYYCQQGYTLPWTFGQGTKVEIK | no binding | 0.8 |  |  | 
NRP1-25 (VHH) VHH: EVQLVESGGGLVQPGGSLRLSCAASGRTSNIYAMGWFRQAPGKERELVAAIRWSGVETYYADSVKGRFTISADNSKNTAYLQMNSLKPEDTAVYYCAADRMYRPVGNQYDWGQGTLVTVSS |  | 8.9 | 831 | 0.00969 | 11700
NRP1-118 (antibody, IgG2, V domains shown) VH: EVQLLESGGGLVQPGGSLRLSCAASGFTFNKYPMMWVRQAPGKGLEWVSRISVAGRRTAYADSVKGRFTISRDNSKNTLYLQMNSLRAEDTAVYYCAKWRREGYTGSKFDYWGQGTLVTVSS VL: DIQMTQSPSSLSASVGDRVTITCSASQDINKYLNWYQQKPGKAPKLLIYGTSNLESGVPSRFSGSGSGTDFTLTISSLQPEDFATYYCHTWDHHHTTGEHNVFGQGTKVEIK | no binding | 4.5 |  |  | 
NRP1-11 (VHH) VHH: EVQLVESGGGLVQPGGSLRLSCAASGRTFTTYPMGWFRQAPGKEREFVAAITWNGASTSYADSVKGRFTISADNSKNTAYLQMNSLKPEDTAVYYCAKGGGYSGYDYDYWGQGTLVTVSS | no binding | 2.3 |  |  | 
NRP1-204 (antibody, IgG2, V domains shown) VH: EVQLLESGGGLVQPGGSLRLSCAASGFTFSAFAMSWVRQAPGKGLEWVSGTSGSGGSTYYADSVKGRFTISRDNSKNTLYLQMNSLRAEDTAVYYCARHRAYSYGLDYWGQGTLVTVSS VL: DIQMTQSPSSLSASVGDRVTITCRARQSISTYLNWYQQKPGKAPKLLIYSASTLESGVPSRFSGSGSGTDFTLTISSLQPEDFATYYCQQSYRTPWTFGGGTKVEIK |  | 9.2 | 408000 | 0.0897 | 220
NRP1-210 (antibody, IgG2, V domains shown) VH: EVQLLESGGGLVQPGGSLRLSCAASGFTFSSYVMAWVRQAPGKGLEWVSTISASGGTTYYADSVKGRFTISRDNSKNTLYLQMNSLRAEDTAVYYCAKVGSGWYFWGQGTLVTVSS VL: DIQMTQSPSSLSASVGDRVTITCRTSQSISRYLNWYQQKPGKAPKLLIYAASSLQGGVPSRFSGSGSGTDFTLTISSLQPEDFATYYCQQSYTVPITFGGGTKVEIK | no binding | 2.1 |  |  | 
NRP1-125 (antibody, IgG2, V domains shown) VH: EVQLLESGGGLVQPGGSLRLSCAASGFTFSGYDMQWVRQAPGKGLEWVSSISGYGSTTYYADSVKGRFTISRDNSKNTLYLQMNSLRAEDTAVYYCAKGRRIFDYWGQGTLVTVSS VL: DIQMTQSPSSLSASVGDRVTITCRASQTIERRLNWYQQKPGKAPKLLIYRKSNRPSGVPSRFSGSGSGTDFTLTISSLQPEDFATYYCQQNNNWPTTFGQGTKVEIK | no binding | 0.6 |  |  | 
NRP1-6 (VHH) VHH: EVQLVESGGGLVQPGGSLRLSCAASGLTYTMNWFRQAPGKEREFVAGFAGIGTVTSYADSVKGRFTISADNSKNTAYLQMNSLKPEDTAVYYCSGFDGYSGSDWGQGTLVTVSS | no binding | 0.5 |  |  | 
